The values that follow come from patent US7078203 (UNIVERSITY OF NORTH CAROLINA AT CHAPEL HILL, dated 2006).

Assay [1] has as its target human ROC1 (untagged: in vitro translated or endogenous in HeLa and Saos-2 cells) (human, UniProt P62877 1-108). The assay is described as follows: anti-ROC1 immunopurification from HeLa lysate, microsequencing of co-precipitated 70 to 120 kDa proteins.
Assay [2] addresses CUL-B (ORF YGR003w) fused to the Gal4 DNA binding domain (yeast; S. cerevisiae, UniProt P04386 1-147; P53202 1-744). Description: yeast two-hybrid. The source says: (§1) The yeast genome contains four cullin members, CDC53, CUL-B (ORF YGR003w), CUL-C(ORF YJL047c) and APC2. Each gene was fused in-frame with the Gal4 DNA binding domain and co-transformed with ScROC1 or ScAPC11 fused in-frame with the GAL4 activation domain. ScAPC2 was self-activating as a bait and was fused in-framed with the GAL4 activation domain and tested with ScROC1 fused in-frame with the DNA binding domain.

Assay [3] addresses CDC53 fused to the Gal4 DNA binding domain (pGBT8-CDC53) (yeast; S. cerevisiae, UniProt P04386 1-147; Q12018 1-815). The assay is described as follows: yeast two-hybrid.
Text: as §1

Assay [4] addresses T1, mouse APC2 fused to the Gal4 DNA-binding domain (yeast; mouse, UniProt P04386 1-147; Q8BZQ7 15-837, limits assumed).
T1 construct: also called GAL4BD-APC2
Description: yeast two-hybrid, -LWH with 5 mM 3-AT.

The target in assay [5] is myc-epitope tagged APC2 (mouse, UniProt Q8BZQ7 15-837). The assay is described as follows: co-immunoprecipitation from transfected HeLa cells.
Sequence of myc-epitope tagged APC2 (Q8BZQ7 15-837): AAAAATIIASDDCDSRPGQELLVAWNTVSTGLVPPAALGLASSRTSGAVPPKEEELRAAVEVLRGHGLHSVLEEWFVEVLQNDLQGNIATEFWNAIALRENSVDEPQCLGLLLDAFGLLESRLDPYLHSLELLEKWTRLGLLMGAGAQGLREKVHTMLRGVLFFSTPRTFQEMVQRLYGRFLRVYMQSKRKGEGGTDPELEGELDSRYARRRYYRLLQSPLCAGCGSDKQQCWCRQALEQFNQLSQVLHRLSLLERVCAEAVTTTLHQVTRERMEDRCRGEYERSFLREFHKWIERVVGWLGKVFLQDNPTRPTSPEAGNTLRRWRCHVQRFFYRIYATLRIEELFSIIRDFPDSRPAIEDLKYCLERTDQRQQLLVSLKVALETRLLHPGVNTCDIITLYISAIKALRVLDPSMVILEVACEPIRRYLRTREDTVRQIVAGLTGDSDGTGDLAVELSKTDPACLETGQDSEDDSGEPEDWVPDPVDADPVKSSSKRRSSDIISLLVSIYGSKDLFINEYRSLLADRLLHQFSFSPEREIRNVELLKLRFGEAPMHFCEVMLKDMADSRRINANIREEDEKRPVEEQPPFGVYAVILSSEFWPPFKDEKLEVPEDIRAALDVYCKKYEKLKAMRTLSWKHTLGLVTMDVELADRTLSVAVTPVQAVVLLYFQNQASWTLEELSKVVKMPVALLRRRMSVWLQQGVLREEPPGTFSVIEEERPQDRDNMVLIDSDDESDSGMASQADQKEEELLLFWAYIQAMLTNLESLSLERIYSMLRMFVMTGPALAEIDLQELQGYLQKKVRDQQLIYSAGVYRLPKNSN
The target in assay [6] is T2, HA-epitope tagged human ROC1 (human, UniProt P62877 1-108).
T2 construct: Expressed by transfection in mammalian cells; tag written first because of the name HA-ROC1; also called HA-ROC1
T2 sequence (P62877 whole entry): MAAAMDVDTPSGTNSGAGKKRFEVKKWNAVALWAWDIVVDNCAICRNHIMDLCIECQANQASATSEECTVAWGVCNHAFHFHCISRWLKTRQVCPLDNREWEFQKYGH
Description: co-immunoprecipitation with anti-HA from [35S]-methionine labelled transfected cells.

Sequence of human ROC1 (untagged: in vitro translated or endogenous in HeLa and Saos-2 cells) (P62877 whole entry, the tested form may be a part): as the sequence (P62877 whole entry) above

B1: human CUL2 (endogenous in HeLa cells) (other, UniProt Q13617 1-745, looked up)
chain: MSLKPRVVDFDETWNKLLTTIKAVVMLEYVERATWNDRFSDIYALCVAYPEPLGERLYTETKIFLENHVRHLHKRVLESEEQVLVMYHRYWEEYSKGADYMDCLYRYLNTQFIKKNKLTEADLQYGYGGVDMNEPLMEIGELALDMWRKLMVEPLQAILIRMLLREIKNDRGGEDPNQKVIHGVINSFVHVEQYKKKFPLKFYQEIFESPFLTETGEYYKQEASNLLQESNCSQYMEKVLGRLKDEEIRCRKYLHPSSYTKVIHECQQRMVADHLQFLHAECHNIIRQEKKNDMANMYVLLRAVSTGLPHMIQELQNHIHDEGLRATSNLTQENMPTLFVESVLEVHGKFVQLINTVLNGDQHFMSALDKALTSVVNYREPKSVCKAPELLAKYCDNLLKKSAKGMTENEVEDRLTSFITVFKYIDDKDVFQKFYARMLAKRLIHGLSMSMDSEEAMINKLKQACGYEFTSKLHRMYTDMSVSADLNNKFNNFIKNQDTVIDLGISFQIYVLQAGAWPLTQAPSSTFAIPQELEKSVQMFELFYSQHFSGRKLTWLHYLCTGEVKMNYLGKPYVAMVTTYQMAVLLAFNNSETVSYKELQDSTQMNEKELTKTIKSLLDVKMINHDSEKEDIDAESSFSLNMNFSSKRTKFKITTSMQKDTPQEMEQTRSAVDEDRKMYLQAAIVRIMKARKVLRHNALIQEVISQSRARFNPSISMIKKCIEVLIDKQYIERSQASADEYSYVA
notes: also called cullin 2
As to B1, the binding result in assay [1] is on record as “binds”.

B2: ScAPC11 fused to the GAL4 activation domain (other, S. cerevisiae, UniProt Q12157 1-165, looked up, not shown: large carriers)
chain: MKVKINEVHSVFAWSWHIPSTSDEDAANNDPIGNDEDEDVCGICRASYNGTCPSCKFPGDQCPLVIGLCHHNFHDHCIYRWLDTPTSKGLCPMCRQTFQLQKGLAINDAHVQKFVEIVSRRREEMIEEGVAEEFVDFDEPIRQNTDNPIGRQQVDTILDEDFLLR
notes: also called yeast APC11
With B2, the binding result in assay [2] and in assay [3] was “no binding” in each case.

B3: full length human ROC2 fused to the Gal4 DNA activation domain (other, not shown: large carriers)
chain: MFSLKKWNPVAMWSWDVECDTCAICRVQVMDACLRCQAENKQEDCVVVWGECNHSFHNCCMSLWVKQNNRCPLCQQDWVVQRIGK
notes: Yeast two-hybrid prey
With B3, the binding result in assay [4] is “no binding”.

B4: HA tagged human ROC2 (other, not shown: small tags and cut ends)
chain: B3 chain
notes: Migrates as a doublet in transfected cells; also called HA-ROC2
Take B4: in assay [5], the binding result is “no binding”.

B5: myc-epitope tagged mouse cullin 4A (other, UniProt Q3TCH7 1-759, looked up, not shown: small tags and cut ends)
chain: MADEGPRKGSVSALMGRTNGLTKPAALAGGPAKPGGTGGSRKLVIKNFRDRPRLPDNYTQDTWRKLHEAVKAIQSSTSIRYNLEELYQAVENLCSHKVSPTLYKQLRQVCEDHVQAQILPFREDSLDSVLFLKKINTCWQDHCRQMIMIRSIFLFLDRTYVLQNSMLPSIWDMGLELFRNHIISDRMVQSKTIDGILLLIGRERSGEAVDRSLLRSLLSMLSDLQVYKDSFELKFLEETNCLYAAEGQRLMQDREVPEYLNHVSKRLEEEADRVITYLDHSTQKPLIACVEKQLLGEHLTAILQKGLEHLLDENRVPDLTQMYQLFSRVKGGQHALLQHWSEYIKTFGTTIVINPEKDKDMVQDLLDFKDKVDHVVEVCFQRNERFINLMKESFETFINKRPNKPAELIAKHVDSKLRAGNKEATDEELERILDKIMILFRFIHGKDVFEAFYKKDLAKRLLVGKSASVDAEKSMLSKLKHECGAAFTSKLEGMFKDMELSKDIMVHFKQHMQNQSAPGPIDLTVNILTMGYWPTYTPMEVHLPPEMVRLQEVFKTFYLGKHSGRKLQWQTTLGHAVLKADFKEGKKEFQVSLFQTLVLLMFNEGDGFSFEEIKMATGIEDSELRRTLQSLACGKARVLIKSPKGKEVEDGDKFIFNADFKHKLFRIKINQIQMKETVEEQVSTTERVFQDRQYQIDAAIVRIMKMRKTLGHNLLVSELYNQLKFPVKPGDLKKRIESLIDRDYMERDKDSPNQYHYVA
notes: also called myc-mCUL4A
On to B5, for which the binding result in assay [6] is “binds”.
